Experimental data as given in PMC7666225.

What was measured:
thrombin [1] = molecular target: thrombin
thrombin [2] = molecular target: thrombin; remark: listed apart in the source
thrombin [3] = molecular target: thrombin; remark: listed apart in the source

| Substance | thrombin time test, clotting time with 10 µl SN2 fraction (thrombin [1]) [s] | thrombin time test at equimolar 3.1 nmol/l, elongation of TT against rHV1 (fold against rHV1) (thrombin [2]) | thrombin time test at equimolar 3.1 nmol/l, effect against rHV1 (fold against rHV1) (thrombin [2]) | thrombin time test at 1, 4.9 and 9.8 nmol/l, potency against Mel-HV1 (fold against Mel-HV1) (thrombin [3]) |
| --- | --- | --- | --- | --- |
| hirudin variant 1 with its endogenous wild-type signal peptide (WT-HV1), cell-free synthesized in Sf21 cell lysate (from UniProt P01050 1-65) (natural protein) | 50 | > 2 |  |  |
| hirudin variant 1 with its endogenous wild-type signal peptide (WT-HV1), cell-free synthesized in CHO cell lysate (from UniProt P01050 1-65) (natural protein) | 94 | 9 |  |  |
| hirudin variant 1 with its endogenous wild-type signal peptide (WT-HV1), cell-free synthesized in K562 cell lysate (from UniProt P01050 1-65) (natural protein) | 242 |  | 100 | > 10 |
